Target: COPI coatomer (heptameric complex) (Chlamydomonas reinhardtii (endogenous in C. reinhardtii cells))
Assay: cryo-EM structure; in situ cryo-electron tomography of cryo-FIB milled vitrified C. reinhardtii cells, reference-free subtomogram averaging of the COPI triad with three-fold symmetry, 20 Å; PDB 5A1U fitted as a rigid body; separate averages of buds, vesicles and Golgi regions

**Q.** COPI coatomer (heptameric complex) was tested. Which stoichiometry N did it give?
**A.** 3
